Here are results for one molecule from patent US20130084298A1 (ACADEMIA SINICA, published 2013).

The target in the test is T1, human clathrin heavy chain (CHC) (human, UniProt Q00610 2-1675).
T1 construct: Endogenous ~190 kDa protein of human cancer cell lines (MIA PaCa-2 and others); No recombinant construct was used; also called CLTC gene product
The test can be described thus: hybridoma mAb, target identification.

T1 sequence (Q00610 2-1675 limits assumed): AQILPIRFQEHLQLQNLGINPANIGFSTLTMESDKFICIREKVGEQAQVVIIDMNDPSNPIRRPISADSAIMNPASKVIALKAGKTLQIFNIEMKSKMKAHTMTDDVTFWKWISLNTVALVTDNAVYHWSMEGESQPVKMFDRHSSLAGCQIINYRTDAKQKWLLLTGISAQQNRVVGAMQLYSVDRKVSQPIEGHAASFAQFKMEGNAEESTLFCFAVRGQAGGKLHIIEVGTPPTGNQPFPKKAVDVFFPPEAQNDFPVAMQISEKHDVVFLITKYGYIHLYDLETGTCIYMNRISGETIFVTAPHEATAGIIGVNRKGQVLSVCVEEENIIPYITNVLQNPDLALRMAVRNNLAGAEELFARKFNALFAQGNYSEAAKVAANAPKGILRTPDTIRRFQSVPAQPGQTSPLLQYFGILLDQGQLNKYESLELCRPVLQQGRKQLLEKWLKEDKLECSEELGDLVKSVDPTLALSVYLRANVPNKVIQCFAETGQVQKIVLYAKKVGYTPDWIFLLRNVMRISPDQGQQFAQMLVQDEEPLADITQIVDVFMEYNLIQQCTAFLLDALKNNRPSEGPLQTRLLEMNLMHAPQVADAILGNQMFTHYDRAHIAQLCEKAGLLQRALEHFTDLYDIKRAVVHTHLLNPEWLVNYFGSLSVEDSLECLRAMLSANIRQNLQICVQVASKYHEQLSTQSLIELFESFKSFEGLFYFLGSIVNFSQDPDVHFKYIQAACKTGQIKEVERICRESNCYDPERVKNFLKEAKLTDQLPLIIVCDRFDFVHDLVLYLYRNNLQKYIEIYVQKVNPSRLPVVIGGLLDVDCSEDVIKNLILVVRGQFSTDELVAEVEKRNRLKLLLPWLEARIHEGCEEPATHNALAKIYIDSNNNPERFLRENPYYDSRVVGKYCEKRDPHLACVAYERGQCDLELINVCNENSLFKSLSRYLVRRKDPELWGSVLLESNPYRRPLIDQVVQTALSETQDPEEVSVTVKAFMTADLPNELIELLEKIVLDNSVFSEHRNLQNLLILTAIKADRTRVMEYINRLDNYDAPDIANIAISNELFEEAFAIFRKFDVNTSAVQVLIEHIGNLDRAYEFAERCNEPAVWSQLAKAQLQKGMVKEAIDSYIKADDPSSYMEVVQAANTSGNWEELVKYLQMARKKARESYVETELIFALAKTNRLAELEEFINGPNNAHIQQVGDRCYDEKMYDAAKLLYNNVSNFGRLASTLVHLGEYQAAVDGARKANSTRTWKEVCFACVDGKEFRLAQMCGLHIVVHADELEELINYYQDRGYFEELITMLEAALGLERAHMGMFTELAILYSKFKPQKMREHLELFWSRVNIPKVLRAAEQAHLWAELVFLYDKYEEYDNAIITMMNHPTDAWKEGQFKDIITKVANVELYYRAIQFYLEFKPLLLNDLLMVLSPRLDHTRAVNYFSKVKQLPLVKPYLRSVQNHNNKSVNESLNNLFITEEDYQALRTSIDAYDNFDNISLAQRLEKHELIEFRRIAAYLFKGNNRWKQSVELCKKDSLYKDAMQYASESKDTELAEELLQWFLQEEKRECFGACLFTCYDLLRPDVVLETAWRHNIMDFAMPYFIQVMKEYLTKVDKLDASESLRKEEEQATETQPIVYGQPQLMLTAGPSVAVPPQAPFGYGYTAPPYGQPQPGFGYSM

B1: Pa65-2 (antibody, V domains shown)
VH: EVKLVESGGGLVKPGGSLNISCAASGFTFSNYVMSWVRQTPEKRLEWVATISSGDNYMYYPDSVKGRFTISSDNAKNTLFLQMSSLRSEDTALYYCARHFDNYEGNSMDYWGQGTSVTVSS
VL: DIVLTQSPATLSVTPGDSVSLSCRASQSIRSNLHWYQQKSHESPRLLIKYASQSISGIPSRFSGSGSGTDFILSINSVATEDFGVYFCQQSNSWPLTFGAGTKLELKR
notes: also called Pa65-2 mAb; anti-CHC monoclonal antibody
On to B1, for which the binding result is reported as “binds”.
